Source: patent US20020142457A1, “Cell having the potentiality of differentiation into cardiomyocytes” (priority 1999, published 2002)
Ends that are not written are not given here.

Tested on: mouse bone marrow-derived pluripotent stem cells (BMSC)
Assay: Differentiation of BMSC into myotubes, phase-contrast microscope
Assay type: cell-based
Conditions: 5-aza-C 3 μM in all dishes, cytokine 10 ng/ml, four weeks after addition of 5-aza-C
Description: The mouse bone marrow-derived pluripotent stem cells (BMSC) having the potential to differentiate into cardiomyocytes were plated into 60-mm culture dishes and 60 mm fibronectin-coated dishes (Becton Dickinson) at a density of 2×10^4 cells/ml and cultured at 33° C. in a 5% CO2-incubator.
On the next day, 5-aza-C was added to each culture medium in a final concentration of 3 μM, followed by culturing with the following 3 different treatments, with addition of PDGF (culture dish A), both PDGF and retinoic acid (culture dish B) or without addition of any compound (culture dish C) (final concentration: PDGF, 10 ng/ml; retinoic acid, 10^−9 M).
On the next day, the medium was replaced with a fresh medium to remove 5-aza-C therefrom. Then, PDGF was added to the culture dish A until the final concentration of PDGF came to be 10 ng/ml, while PDGF and retinoic acid were added to the culture dish B until the final concentrations of PDGF and retinoic acid came to be 10 ng/ml and 10^−9 M, respectively. Two and four days thereafter, the medium was replaced and the PDGF or retinoic acid was further added.
As a result, about 30% of the cells in the culture dish containing 5-aza-C alone differentiated into myotubes, while about 40% of the cells in the culture dish containing PDGF and about 50% of the cells in the culture dish containing PDGF together with retinoic acid differentiated into myotubes. In the three groups of the fibronectin-coated dishes, the ratio of the cells differentiated into myotubes was about 10% higher than in the three groups of the culture dishes.
RNAs were collected from the myotubes thus obtained. And genes expressed in the myotubes were analyzed with quantitative PCR analysis using the synthetic oligonucleotides represented by SEQ ID NOS:71 to 78. As a result, PDGF or retinoic acid promoted the expression of MyoD and fTnI genes relating to a skeletal muscle but not cTnI or ANP specifically relating to a myocardium. Next, mouse bone marrow-derived pluripotent stem cells (BMSC) having the potential to differentiate into cardiomyocytes were inoculated in a 60-mm culture dish at a density of 2×10^4 cells/ml and cultured using an incubator at 33° C. under 5% of CO2.
On the next day, 5-aza-C was added to the liquid culture medium to give a final concentration of 3 μM. Furthermore, five treatments differing from each other were performed by adding FGF-8 to give a final concentration of 10 ng/ml (culture dish D); adding ET-1 to give a final concentration of 10 ng/ml (culture dish E); adding a midkine to give a final concentration of 10 ng/ml (Culture dish F); adding BMP4 to give a final concentration of 10 ng/ml (culture dish G); and adding no compound (culture dish H), followed by culturing.
On the next day, the medium was replaced by a fresh medium to eliminate 5-aza-C therefrom. Then, FGF-8 was added to the culture dish D to give a final concentration of 10 ng/ml; ET-1 was added to the culture dish E to give a final concentration of 10 ng/ml; the midkine was added to the culture dish F to give a final concentration of 10 ng/ml; and BMP4 was added to the culture dish G to give a final concentration of 10 ng/ml, followed by culturing. Two and four days thereafter, the medium was replaced and the FGF-8, ET-1, midkine or BMP4 was further added.
As a result, about 30% of the cells in the culture dish containing 5-aza-C alone differentiated into myotubes, while about 50% of the cells in the culture dishes containing FGF-8, ET-1, midkine or BMP4 differentiated into myotubes respectively.

**Q.** For “ET-1: endothelin 1, cytokine (CSCSSLMDKECVYFCHLDIIW; ends and bridges not checked; cysteine pairing not given here; UniProt P05305 53-73, looked up)”, which “cells differentiated into myotubes” value is on record?
**A.** about 50%

B1: BMP4: bone morphogenic protein 4, cytokine (protein, UniProt P12644 293-408, looked up)
Bone morphogenetic protein 4: SPKHHSQRARKKNKNCRRHSLYVDFSDVGWNDWIVAPPGYQAFYCHGDCPFPLADHLNSTNHAIVQTLVNSVNSSIPKACCVPTELSAISMLYLDEYDKVVLKNYQEMVVEGCGCR
**Q.** B1 was tested. Which “cells differentiated into myotubes” value did it give?
**A.** about 50%

B2: FGF-8: fibroblast growth factor 8, cytokine (protein, UniProt P55075 23-233, looked up)
Fibroblast growth factor 8: QEGPGRGPALGRELASLFRAGREPQGVSQQHVREQSLVTDQLSRRLIRTYQLYSRTSGKHVQVLANKRINAMAEDGDPFAKLIVETDTFGSRVRVRGAETGLYICMNKKGKLIAKSNGKGKDCVFTEIVLENNYTALQNAKYEGWYMAFTRKGRPRKGSKTRQHQREVHFMKRLPRGHHTTEQSLRFEFLNYPPFTRSLRGSQRTWAPEPR
**Q.** How did the “cells differentiated into myotubes” value turn out when B2 was run?
**A.** about 50%

B3: midkine: cytokine, amino acid sequence SEQ ID NO:68 (protein, listed as Homo sapiens)
chain: MQHRGFLLLTLLALLALTSAVAKKKDKVKKGGPGSECAEWAWGPCTPSSKDCGVGFREGTCGAQTQRIRCRVPCNWKKEFGADCKYKFENWGACDGGTGTKVRQGTLKKARYNAQCQETIRVTKPCTPKTKAKAKAKKGKGKD
modifications: CDS (1)..(432)
**Q.** For B3, which “cells differentiated into myotubes” value is on record?
**A.** about 50%
